Test results taken from PMC11388019, “Autoregulatory mechanism of enzyme activity by the nuclear localization signal of lysine-specific demethylase 1 [drawing 1]” (The Journal of Biological Chemistry, 2024).

Key:
[1] = target: ΔN LSD1 (171–852)–CoREST (286–482) complex (human) (UniProt O60341); experiment: enzyme inhibition kinetics (peroxidase-coupled demethylase assay); 0.3 μM ΔN LSD1-CoREST, 50 mM Hepes (Na) pH 7.5, 25 °C; H3K4me2 peptide (1-21) substrate 10-60 μM; NLS 0-10 μM or NLSp∗ 0-100 μM; fit to competitive inhibition; Ki called apparent in the legend
[2] = target: biotinylated recombinant human nucleosome (unmodified, 147 bp 601 DNA) (human) (UniProt P68431); experiment: SPR; biotinylated recombinant human nucleosomes (147 bp 601 DNA) immobilised on a streptavidin chip SA at 4000-5000 RU; LSD1-CoREST injected at 5-2000 nM (full length up to 500 nM), 40 μl/min; Biacore 3000, 298 K; running buffer 10 mM Tris, 100 mM NaCl, 1 mM EDTA, 2 mM TCEP, 0.005% Tween 20, pH 7.4; apparent Kd
[3] = target: biotinylated NT-LSD1 (residues 100–151) (human); experiment: SPR; biotinylated NT-LSD1 immobilised at 560 RU; ΔN LSD1-CoREST injected at 25-1000 nM, 40 μl/min, in running buffer
[4] = target: ΔN LSD1 (171–852)–CoREST (286–482) complex (human) (UniProt O60341)

Substance	Ki [1]	Kd [2]	Kd [3]	IC50 of inhibition of ΔN LSD1-CoREST demethylation of H3K4me2 nucleosomes (quantitative Western blot, NLS peptide 10-400 μM) [4]
phosphomimic NLS peptide (aa 107–120, T110D/S111D)	38.7 µM			
full-length LSD1 (1–852)-CoREST (286–482) complex (from UniProt O60341 1-852)		0.103 µM		
ΔN LSD1 (171–852)–CoREST (286–482) complex (from UniProt O60341 171-852)		1.76 µM	0.571 µM	
NLS peptide (LSD1 aa 107–120)	3.3 µM			30.4 µM
